B1: CD19×CD3 bispecific antigen binding protein ITAB2003 (bispecific antibody)
chain: EVQLVESGGGLVQPGGSLRLSCAASGFTFNTYAMNWVRQAPGKGLEWVARIRSKYNNYATYYADSVKDRFTISRDDSKNTLYLQMNSLRAEDTAVYYCVRHGNFGNSYVSWFAYWGQGTMVTVSSGGGGSGGGGSGGGGSQAVVTQEPSLTVSPGGTVTLTCRSSTGAVTTSNYANWVQQKPGQAPRGLIGGTNKRAPGTPARFSGSLLGGKAALTLSGVQPEDEAEYYCALWYSNLWVFGGGTKLTVLGRAGGGQVQLVQSGPELIKPGGSVKMSCKASGYTFTSYVMHWVRQKPGQGLEWIGYINPYNDGTKYNEKFKGRATLTSDKSSSTAYMELSSLRSEDSAVYYCARGTYYYGSRVFDYWGQGTTVTVSSASTKGPSVFPLAPSSKSTSGGTAALGCLVKDYFPEPVTVSWNSGALTSGVHTFPAVLQSSGLYSLSSVVTVPSSSLGTQTYICNVNHKPSNTKVDKKVEPKSCPPCGGGGSHHHHHH
light: DVVMTQSPSSIPVTLGESVSISCRSSKSLLNSNGNTYLYWFQQRPGQSPQLLIYRMSNLASGVPDRFSGSGSGTDFTLRISGVEPEDVGVYYCMQHLEYPLTFGAGTKLEIKRTVAAPSVFIFPPSDEQLKSGTASVVCLLNNFYPREAKVQWKVDNALQSGNSQESVTEQDSKDSTYSLSSTLTLSKADYEKHKVYACEVTHQGLSSPVTKSFNRGECPPC
B2: CD19×CD3 bispecific antigen binding protein ITAB2005 (bispecific antibody)
chain: B1 chain
light: DVVMTQSPSSIPVTLGESVSISCRSSKSLQNVNGNTYLYWFQQRPGQSPQLLIYRMSNLNSGVPDRFSGSGSGTDFTLRISGVEPEDVGVYYCMQHLEYPITFGAGTKLEIKRTVAAPSVFIFPPSDEQLKSGTASVVCLLNNFYPREAKVQWKVDNALQSGNSQESVTEQDSKDSTYSLSSTLTLSKADYEKHKVYACEVTHQGLSSPVTKSFNRGECPPCS
B3: CD19×CD3 bispecific antigen binding protein ITAB2006 (bispecific antibody)
chain: EVQLVESGGGLVQPGGSLRLSCAASGFTFNTYAMNWVRQAPGKGLEWVARIRSKYNNYATYYADSVKDRFTISRDDSKNTLYLQMNSLRAEDTAVYYCVRHGNFGNSYVSWFAYWGQGTMVTVSSGGGGSGGGGSGGGGSQAVVTQEPSLTVSPGGTVTLTCRSSTGAVTTSNYANWVQQKPGQAPRGLIGGTNKRAPGTPARFSGSLLGGKAALTLSGVQPEDEAEYYCALWYSNLWVFGGGTKLTVLGRAGGGGAGGGGQVQLVQSGPELIKPGGSVKMSCKASGYTFTSYVMHWVRQKPGQGLEWIGYINPYNDGTKYNEKFKGRATLTSDKSSSTAYMELSSLRSEDSAVYYCARGTYYYGSRVFDYWGQGTTVTVSSASTKGPSVFPLAPSSKSTSGGTAALGCLVKDYFPEPVTVSWNSGALTSGVHTFPAVLQSSGLYSLSSVVTVPSSSLGTQTYICNVNHKPSNTKVDKRVEPKSCPPCGGGGSHHHHHH
light: B2 light

Tests used:
Experiment in all cases: cell-based or functional assay
[1] = target: T1, human CD19 on cells (human B lymphocytes; Raji, Daudi and Reh tumor cells) (human, UniProt P15391 20-556)
T1 sequence (looked up): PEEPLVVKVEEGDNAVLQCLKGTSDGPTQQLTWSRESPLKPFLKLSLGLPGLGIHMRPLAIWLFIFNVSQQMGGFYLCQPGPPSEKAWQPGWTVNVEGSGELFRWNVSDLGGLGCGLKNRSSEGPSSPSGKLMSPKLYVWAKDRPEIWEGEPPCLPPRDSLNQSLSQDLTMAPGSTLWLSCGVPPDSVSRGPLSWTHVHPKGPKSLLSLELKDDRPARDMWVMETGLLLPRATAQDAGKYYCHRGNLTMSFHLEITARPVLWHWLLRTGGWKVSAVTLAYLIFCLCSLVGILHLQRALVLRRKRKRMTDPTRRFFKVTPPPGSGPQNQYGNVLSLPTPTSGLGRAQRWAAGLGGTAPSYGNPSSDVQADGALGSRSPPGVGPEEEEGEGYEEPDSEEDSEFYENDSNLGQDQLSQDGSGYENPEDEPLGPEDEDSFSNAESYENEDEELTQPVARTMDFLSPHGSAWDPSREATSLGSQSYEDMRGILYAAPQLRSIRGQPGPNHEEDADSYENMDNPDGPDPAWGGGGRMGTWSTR

[2] = target: T2, cynomolgus monkey CD19 on cynomolgus monkey B lymphocytes (cynoPBMC) (cynomolgus monkey, UniProt A0A2K5W8L9 20-557)
T2 sequence: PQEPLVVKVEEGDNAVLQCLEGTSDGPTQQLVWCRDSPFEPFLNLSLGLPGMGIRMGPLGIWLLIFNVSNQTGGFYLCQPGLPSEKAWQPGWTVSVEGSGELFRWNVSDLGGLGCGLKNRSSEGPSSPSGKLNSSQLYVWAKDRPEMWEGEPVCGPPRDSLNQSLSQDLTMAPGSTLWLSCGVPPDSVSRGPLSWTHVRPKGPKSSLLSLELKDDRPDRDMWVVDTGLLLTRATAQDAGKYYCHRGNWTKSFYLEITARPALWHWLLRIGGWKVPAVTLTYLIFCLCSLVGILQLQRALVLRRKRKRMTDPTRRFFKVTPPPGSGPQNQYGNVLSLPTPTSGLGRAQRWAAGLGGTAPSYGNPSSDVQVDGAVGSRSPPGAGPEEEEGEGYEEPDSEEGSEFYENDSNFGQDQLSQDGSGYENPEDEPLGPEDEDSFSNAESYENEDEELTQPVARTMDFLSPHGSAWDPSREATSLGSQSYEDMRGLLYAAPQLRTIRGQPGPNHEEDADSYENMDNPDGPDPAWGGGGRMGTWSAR

[3] = target: T1, human CD19 on cells (human B …); remark: listed apart in the source
[4] = target: T2, cynomolgus monkey CD19 on cynomolgus …; remark: listed apart in the source

| Binder | EC50 of CD19×CD3 BSAP mediated human PBMC cytotoxicity against Raji tumor cells [1] | EC50 of CD19×CD3 BSAP mediated PBMC cytotoxicity against autologous B cells (cynomolgus monkey PBMC) [2] | EC50 of CD19×CD3 BSAP mediated PBMC cytotoxicity against autologous B cells (human PBMC) [3] | cell killing activity relative to ITAB2003 (cynomolgus monkey PBMC against autologous B cells) [4] | cell killing activity relative to ITAB2003 (human PBMC against autologous B cells) [1] |
| --- | --- | --- | --- | --- | --- |
| B1 | 0.49 ng/mL | > 2090 ng/mL | 2.1 ng/mL |  |  |
| B2 |  | 33.5 ng/mL | 0.3 ng/mL | ≥ 62 fold | ≥ 7 fold |
| B3 |  | 18.5 ng/mL | 0.2 ng/mL | ≥ 62 fold | ≥ 7 fold |
